Data reported in patent US20230235078A1 (University of Texas, published 2023).

T1: human DDR2 ECD (human, UniProt Q16832 22-399)
T1 construct: extracellular domain; also called DDR2 ECD protein
T1 sequence (looked up): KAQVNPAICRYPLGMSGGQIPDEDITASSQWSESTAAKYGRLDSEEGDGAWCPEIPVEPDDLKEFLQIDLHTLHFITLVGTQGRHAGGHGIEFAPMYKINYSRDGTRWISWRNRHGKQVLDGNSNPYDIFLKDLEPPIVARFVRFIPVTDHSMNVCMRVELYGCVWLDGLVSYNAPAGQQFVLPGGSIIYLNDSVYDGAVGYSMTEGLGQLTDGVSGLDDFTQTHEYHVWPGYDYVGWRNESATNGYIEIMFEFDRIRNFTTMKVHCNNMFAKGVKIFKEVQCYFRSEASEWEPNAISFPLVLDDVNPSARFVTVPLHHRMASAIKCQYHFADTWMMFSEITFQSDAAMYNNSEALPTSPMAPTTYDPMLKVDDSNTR

T2: mouse DDR1 ECD (mouse, UniProt Q03146 22-415)
T2 construct: extracellular domain; construct not described; also called mouse ECD
T2 sequence (looked up): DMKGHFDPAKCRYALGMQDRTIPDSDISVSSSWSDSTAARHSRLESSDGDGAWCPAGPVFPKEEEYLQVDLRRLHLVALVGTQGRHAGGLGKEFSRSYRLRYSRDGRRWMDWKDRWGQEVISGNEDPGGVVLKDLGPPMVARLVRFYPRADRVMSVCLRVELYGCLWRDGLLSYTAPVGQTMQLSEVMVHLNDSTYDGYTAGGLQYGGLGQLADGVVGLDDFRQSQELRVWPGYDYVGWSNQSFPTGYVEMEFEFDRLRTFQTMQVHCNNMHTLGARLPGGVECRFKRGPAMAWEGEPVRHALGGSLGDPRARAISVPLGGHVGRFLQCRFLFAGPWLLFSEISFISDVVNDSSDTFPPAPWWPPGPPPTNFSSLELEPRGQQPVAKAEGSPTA


How the values were obtained:
Type I collagen = assay: ELISA on coated type I collagen with conditioned media
[1] = target: T3, Human DDR1 extracellular domain (ECD) protein (human, UniProt Q08345 21-417); assay: titration ELISA; target not given, human DDR1 assumed
T3 construct: it is treated here as the same molecule; also called recombinant human DDR1 ECD; huDDR1 ECD; not shown: 6xHIS-tag
Target sequence in this assay (Q08345 21-417): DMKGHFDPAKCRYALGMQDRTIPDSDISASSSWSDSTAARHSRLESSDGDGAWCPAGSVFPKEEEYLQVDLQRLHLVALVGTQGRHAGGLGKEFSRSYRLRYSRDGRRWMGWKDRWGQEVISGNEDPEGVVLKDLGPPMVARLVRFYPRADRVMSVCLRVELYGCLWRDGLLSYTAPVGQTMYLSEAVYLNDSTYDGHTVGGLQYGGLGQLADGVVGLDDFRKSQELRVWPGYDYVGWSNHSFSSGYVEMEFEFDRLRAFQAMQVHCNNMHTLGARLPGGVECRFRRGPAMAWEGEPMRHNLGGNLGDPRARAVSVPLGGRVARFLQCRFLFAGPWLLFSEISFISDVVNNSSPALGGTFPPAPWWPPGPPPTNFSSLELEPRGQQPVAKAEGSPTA

[2] = target: T3, Human DDR1 extracellular domain (ECD) …; assay: titration ELISA on human DDR1
human DDR2 ECD = target: T1, human DDR2 ECD; assay: ELISA, DDR2 ECD coated, antibody at 1 ug/ml, HRP anti-rabbit detection
Procedure: FIG. 19. Determination of cross-reactivity of a panel of monoclonal antibodies to human DDR2 using ELISA method. DDR1 or DDR2 ECD protein was coated on a high binding plate and each of monoclonal antibodies at 1 ug/ml concentration was added for binding detection with HRP conjugated anti-rabbit antibody (Jackson ImmuneResearch, PA).
To determination cross-reactivity of a panel of anti-human DDR1 monoclonal antibodies to human DDR2 ECD, an ELISA method was used. DDR1 ECD or DDR2 ECD protein was coated on a high binding plate and each of monoclonal antibodies was applied at 1 ug/ml concentration and binding was detected using HRP conjugated anti-rabbit antibody (Jackson ImmuneResearch, PA). Monoclonal antibodies DDR1-3; DDR1-9; DDR1-10; DDR1-14 and DDR1-33 were specific for DDR1 epitopes, while clones DDR1-13; DDR1-15; DDR1-21; DDR1-22 and DDR1-34 appear to recognize epitopes present on both DDR1 and DDR2 ECD.

mouse DDR1 ECD = target: T2, mouse DDR1 ECD; assay: titration ELISA on mouse DDR1
[3] = target: T3, Human DDR1 extracellular domain (ECD) …; assay: BLI (Octet 96-Red), antibody on protein A biosensors, recombinant DDR1 0.1-200 nM, 1:1 fit
Procedure: Binding affinity of anti-DDR1 monoclonal antibodies determined using Bio-layer interferometry (BLI) sensor-based Octet instrument. […] Following a short baseline in kinetics buffer, the loaded biosensors were exposed to a series of recombinant DDR1 protein at 0.1-200 nM and background subtraction was used to correct for sensor drifting. All experiments were performed with shaking at 1,000 rpm. Background wavelength shifts were measured from reference biosensors that were loaded only with antibody. Kinetic sensorgrams for each antibody are shown in FIGS. 10A-B. ForteBio's data analysis software was used to fit the data to a 1:1 binding model to extract an association rate and dissociation rate. The KD was calculated using the ratio of koff/kₒₙ and the estimated values of KD for DDR1 mAbs in Table 13.
Target sequence in this assay (Q08345 21-417): as above

[4] = target: T3, Human DDR1 extracellular domain (ECD) …; assay: BLI (Octet); target not given, recombinant DDR1 assumed
[5] = target: T3, Human DDR1 extracellular domain (ECD) …; assay: ELISA, ECD protein coated at 2 ug/ml, antibody titration
Procedure: (§1) FIG. 18A-C. Determination of DDR1 antibody binding to ECD and DS or DSL domains using ELISA method. Recombinant DDR1 extracellular (ECD) protein and domain proteins were coated on a high binding 96-well plates at concentration at 2 μg/ml. (FIG. 18A) DDR1-9Hu antibody titration was used to determine binding curves and EC₅₀s. […] (FIG. 18C)
(§2) Antibody binding domain determination. To determine the binding of DDR1-9 (FIG. 18B) and DDR1-14 (FIG. 18C), and humanized DDR1-9hu-Abl to ECD and DS or DSL domains an ELISA method was used (FIG. 18A). Recombinant DDR1 extracellular (ECD) protein and domain deletion proteins were coated onto high binding 96-well plates at concentration at 2 ug/ml. […] Recombinantly expressed domain proteins were coated on a high-binding 96-well plate (Fisher Scientific) at concentration at 2 ug/ml. A series of antibody titrations was used to determine binding EC50. Deletion of DSL domain of DDR1 ECD impaired the bindings of both DDR1-9 and DDR1-14 antibodies. […] Fragment with DSL deletion totally abolished DDR1-9, DDR1-14, and DDR1-9Hu binding.

[6] = target: DDR1 ECD fragment with deletion of DS domain (Homo sapiens (Human)) (UniProt Q08345); assay: ELISA, domain deletion protein coated at 2 ug/ml, antibody titration
[7] = target: T3, Human DDR1 extracellular domain (ECD) …; assay: ELISA, ECD-His coated at 2 µg/ml, antibody titrated
Procedure: as §1, §2

[8] = target: DDR1 ECD fragment with deletion of DS domain (Homo sapiens (Human)) (UniProt Q08345); assay: ELISA, ECDΔDS-His coated at 2 µg/ml, antibody titrated

EC50 [1]	EC50 (read off the curve) [2]	binding result (human DDR2 ECD)	Kd [3]	koff [3]	kon [3]	binding result (mouse DDR1 ECD)	Molecule	also measured
–	–	–	–	–	–	–	mouse DDR1 ECD T58A (from UniProt Q03146 22-415) (receptor)	percent of WT collagen binding affinity (Type I collagen): 50%
0.148 µg/mL	~0.02 µg/mL	no binding (tested: 1 ug/ml)	0.797 nM	0.000493 s⁻¹	619000 M⁻¹ s⁻¹	–	DDR1-33 (antibody, V domains shown, Rabbit variable domains; also called anti-huDDR1 #33 antibody; DDR1-33K/DDR1-33H) VH: QSVEESGGRLVTPGGSLTLTCTVSGFSLSSYDMSWVRQAPGKGLEWIGISWNSGFVDYASWAKGRFSISKTSTTVDLKITSPTTEDTATYFCARLGADDIYYFNLWGPGTLVTISS VL: ELVMTQTPASVEAAVGGTVTIKCQASETISSRLAWYQQKPGQPPKLLIYQASKLPSGVPSRFKGTGSGTEYTLTISDLECADAATYYCQGCYYGGGSFYDSAFGGGTEVVVK	EC50 (read off the curve) (mouse DDR1 ECD): ~0.02 µg/mL
0.0713 µg/mL	–	no binding (tested: 1 ug/ml)	0.113 nM	2.27e-05 s⁻¹	202000 M⁻¹ s⁻¹	no binding	DDR1-14 (antibody, V domains shown, Rabbit variable domains; also called anti-huDDR1 antibody #14; DDR1-14K/DDR1-14H) VH: QSVKESGGRLVTPGTPLTLTCTVSGIDLSYYAMSWVRQAPGKGLEYIGIINGRGDTGYATWAKGRFTISKTSTTVDLRITSPTIEDTATYFCAREDSAIPFIVGNYYGMDLWGPGTLVTVSS VL: ELDMTQTPASVSEPVGGTVTIKCQASQSISSYLAWYQQKPGQPPKRLIFEASTLASGVPSRFSGSGSGTDFTLTISDLECADAATYYCQNNNGFSGSNFNNFGGGTEVEIK	–
–	–	–	–	–	–	–	DDR1-9Hu-Ab1 (antibody, V domains shown, Humanized form of DDR1-9; also called DDR1-9hu-Abl; humanized DDR1-9hu antibody) VH: QVQLVESGGRVVQPGRSLRLSCTASGFSLNRYYMLWVRQAPGKGLEWIGTISYGDTTYYASWAKGRFTISRDNSKNTLYLQMNSLRAEDTAVYYCARADTGDNGYLGLQLWGQGTLVTVSS VL: DIQMTQSPSSVSASVGDRVTITCQASQSIGSVLAWYQQKPGKAPKLLISGVFDLASGVPSRFSGSGSGTDFTLTISSLQPEDFATYYCQYIPYGSSPFGGGTKVEIK	Kd [4]: 0.39 nM; koff [4]: 6.52e-05 s⁻¹; kon [4]: 165000 M⁻¹ s⁻¹; EC50 [5]: 0.083 µg/mL; EC50 [6]: 0.168 µg/mL
0.0598 µg/mL	~0.02 µg/mL	no binding (tested: 1 ug/ml)	1.1 nM	0.00191 s⁻¹	1.73e+06 M⁻¹ s⁻¹	no binding	DDR1-3 (antibody, V domains shown, Rabbit variable domains; also called anti-huDDR1 antibody #3; DDR1-3K/DDR1-3H) VH: QSVKESGGRLVTPGTPLTLTCTVSGIDLSSYAMSWVRQAPGKGLEWIGTINIGGGTWDATWARGRFTISRTSTTVDLKITSPTIGDTATYFCARDVDAHTLTYFTLWGPGTLVTISS VL: ELVLTQTPASVSEPVGGTVTIKCQASQTISSWLSWYQQKPGQPPKLLIYYAFNLASGVPSRFKGSGSGTEFTLTISDLECADAATYYCQQGISSSNVDNVFGGGTEVVVK	–
0.183 µg/mL	–	no binding (tested: 1 ug/ml)	0.236 nM	7.35e-05 s⁻¹	311000 M⁻¹ s⁻¹	–	DDR1-9 (antibody, V domains shown, Rabbit variable domains; also called anti-huDDR1 antibody #9; DDR1-9K/DDR1-9H) VH: QSLEESGGRLVTPGTPLTLTCTASGFSLNRYYMLWVRQAPGEGLEWIGTISYGDTTYYASWAKGRFTISKTSTTVDLKMTSPTTEDTATYFCARADTGDNGYLGLQLWGPGTLVTVSS VL: ELVMTQTPASVEAAVGGTVTIKCQASQSIGSVLAWYQQKPGQRPKLLISGVFDLASGVPSRFKGSGSGTEFTLTISDLECADAATYYCQYIPYGSSPFGGGTEVVVK	EC50 (read off the curve) [7]: ~0.2 µg/mL; EC50 (read off the curve) [8]: 0.2 µg/mL
